Data on 9 molecules can be found in patent US20110243954A1 (published 2011).

Test [1] concerns the target T1, von Willebrand factor (human, UniProt P04275 764-2813).
T1 construct: also called vWF; VWF
Description: inhibition ELISA of ristocetin-induced binding of vWF to platelets. As for the experimental part:
After 3 times washing with phosphate buffered saline (PBS), wells were incubated for 1 hour at room temperature (RT) with formalin fixed human platelets (Dade Behring, Newark, Del.) which were diluted two-fold in PBS or—as a blank—with PBS. Wells were washed 3 times with PBS and blocked for 2 hours at RT with PBS containing 4% bovine serum albumin (BSA, Sigma). A dilution series of compound was prepared in human plasma and was preincubated for 30 min at RT with 1.5 mg/mL ristocetin (abp, NJ, USA) after which the mixture was transferred to the coated wells. […] For the analysis of the data, the absorbance values were corrected using the absorbance of the respective blanks.
(In an ELISA, binding on a coated surface is turned into a signal by an enzyme label.)

The target of test [2] is T2, human serum albumin (human, UniProt P02768 25-609).
T2 construct: HSA used in ELISA and SPR was bought (Sigma); also called HSA
Description: solution binding competition ELISA: phage pre-incubated with 1 µM HSA, unbound phage captured on coated HSA; signal with competitor / without. The protocol: (§1) A competition ELISA was performed to determine the relative binding affinity for the selected phage clones. 96-well Nunc Maxisorp plates were coated with 2 μg/ml HSA in coating buffer at 4° C. Plates were blocked with SuperblockT20 (Pierce) for 1 h at room temperature. The microtiter plates were washed with wash buffer (PBS, 0.05% Tween 20).
Unbound phage was captured by transferring 100 μl of the well mixture to the HSA coated Maxisorp plate and incubating at room temperature for 30 minutes. The plate with captured phage was washed with PBS-0.05% Tween 20 five times. Bound phages were detected with anti-M13 and goat-anti mouse IRDye conjugate. The amount of IRDye bound was measured on Odyssey (LI-COR Biosciences). The ratio of phage binding was calculated by the following equation: fluorescence signal of well with competitor/fluorescence signal of well with no competitor (Table III).

Test [3] concerns the target T2, human serum albumin. Description: phage competition ELISA: signal of well with 2 µM HSA competitor / signal of well with no competitor. As for the experimental part: as §1
After respectively three and four selection rounds, monoclonal phage were screened for binding on HSA, in the manner described in Example 2. […] The ratio of phage binding was calculated by the following equation: fluorescence signal of well with 2 μM competitor/fluorescence signal of well with no competitor (Table VI).

B1: 12A2 sv1-AAA-12A2 sv1-9GS-59C2 (vWF-0055) (VHH)
chain: DVQLVESGGGLVQPGGSLRLSCAASGRTFSYNPMGWFRQAPGKGRELVAAISRTGGSTYYPESVEGRFTISRDNAKRTVYLQMNSLRAEDTAVYYCAAAGVRAEQGRVRTLPSEYTFWGQGTQVTVSSAAAEVQLVESGGGLVQPGGSLRLSCAASGRTFSYNPMGWFRQAPGKGRELVAAISRTGGSTYYPESVEGRFTISRDNAKRTVYLQMNSLRAEDTAVYYCAAAGVRAEQGRVRTLPSEYTFWGQGTQVTVSSGGGGSGGGSRDWDFDVFGGGTPVGG
notes: bivalent anti-vWF Nanobody with one C-terminal 59C2 peptide
With B1, the binding result in test [1] is “binds”.

For the molecule AALYDDYDVFGGGTPVGG (also called 01C7; PMP26A3 (in the text)) [PMP56A3], in test [2], the “Ratio 1 µM/0 µM HSA” value turned out to be 0.47 ratio.

For AALYDDYDVFGGGTPAGG [01B3], the “Ratio 1 µM/0 µM HSA” value in test [2] came out at 0.42 ratio.

Take AAFYDDYDVFGGGTPAGG (also called 01G7; PMP54H5 (in the text)) [PMP56H5]: the “Ratio 1 µM/0 µM HSA” value in test [2] came out at 0.43 ratio.

B2: 12A2 sv1-AAA-12A2 sv1-9GS-59C2-9GS-59C2 (vWF-0056) (VHH)
chain: DVQLVESGGGLVQPGGSLRLSCAASGRTFSYNPMGWFRQAPGKGRELVAAISRTGGSTYYPESVEGRFTISRDNAKRTVYLQMNSLRAEDTAVYYCAAAGVRAEQGRVRTLPSEYTFWGQGTQVTVSSAAAEVQLVESGGGLVQPGGSLRLSCAASGRTFSYNPMGWFRQAPGKGRELVAAISRTGGSTYYPESVEGRFTISRDNAKRTVYLQMNSLRAEDTAVYYCAAAGVRAEQGRVRTLPSEYTFWGQGTQVTVSSGGGGSGGGSRDWDFDVFGGGTPVGGGGGGSGGGSRDWDFDVFGGGTPVGG
notes: bivalent anti-vWF Nanobody with a C-terminal tandem repeat of 59C2
As for B2, the binding result in test [1] is given as “binds”.

In the case of AARYWDYDVFGGGTPVGG (also called EXP56E4) [PMP56E4], the “Ratio 2 µM/0 µM HSA” value in test [3] came to 0.82 ratio.

AARDWDFDVFGGGTPVGG (also called EXP59C2) [59C2]: in test [3], the “Ratio 2 µM/0 µM HSA” value is 0.91 ratio.

As for AARYWDFDVFGGGTPVGG [59F2], the “Ratio 2 µM/0 µM HSA” value in test [3] is 0.69 ratio.

Consider AARSWDFDVFGGGTPVGG [59H12], for which, in test [3], the “Ratio 2 µM/0 µM HSA” value came to 0.87 ratio.
